Reference: paper PMC3546355

Molecular target: Cry1Aa toxin-binding region of BtR175 (BtR175-TBR) (Bombyx mori) (UniProt Q9XY09)
Assay: SPR

Substance “Cry1Aa loop mutant L^367PRP^370 (from UniProt P0A366 1-1176) (ligand)” has a Kd of 13.3 nM.
Work on “Cry1Aa loop mutant P^367RRP^370 (from UniProt P0A366 1-1176) (ligand)” yielded a Kd of 12.1 nM.
For “Cry1Aa loop mutant E^439PPA^442 (from UniProt P0A366 1-1176) (ligand)”, the Kd was 11.6 nM and the kon was 121000 M⁻¹ s⁻¹.
“Cry1Aa loop mutant G^435LVG^438 (from UniProt P0A366 1-1176) (ligand)” was tested, and the Kd was 13.5 nM and the koff was 0.00559 s⁻¹.
“Cry1Aa loop mutant V^443ELL^446 (from UniProt P0A366 1-1176) (ligand)” was tested, and the Kd was 20.4 nM, the koff was 0.00272 s⁻¹ and the kon was 133000 M⁻¹ s⁻¹.
Substance “Cry1Aa loop mutant S^371APN^374 (from UniProt P0A366 1-1176) (ligand)” has a Kd of 13.3 nM.
Work on “Cry1Aa loop mutant T^439LRT^442 (from UniProt P0A366 1-1176) (ligand)” yielded a Kd of 10.5 nM, a koff of 0.00158 s⁻¹ and a kon of 151000 M⁻¹ s⁻¹.
Work on “Cry1Aa loop mutant A^310QMA^313 (from UniProt P0A366 1-1176) (ligand)” yielded a Kd of 16 nM.
Substance “Cry1Aa loop mutant D^439TGN^442 (from UniProt P0A366 1-1176) (ligand)” has a Kd of 13.5 nM and a koff of 0.00162 s⁻¹.
With “Cry1Aa loop 3 mutant H^439MPR^442 (from UniProt P0A366 1-1176) (ligand)” the koff was 0.00105 s⁻¹.
Substance “Cry1Aa loop 3 mutant Q^439PRG^442 (from UniProt P0A366 1-1176) (ligand)” has a koff of 0.00162 s⁻¹.
“Cry1Aa loop mutant I^443VPV^446 (from UniProt P0A366 1-1176) (ligand)” showed a Kd of 19.9 nM, a koff of 0.00316 s⁻¹ and a kon of 158000 M⁻¹ s⁻¹.
With “Cry1Aa loop mutant S^435VVG^438 (from UniProt P0A366 1-1176) (ligand)” the Kd was 19.9 nM and the koff was 0.00379 s⁻¹.
